According to PMC9482650, “Quantitative fragmentomics allow affinity mapping of interactomes” (Nature Communications, 2022):

T1: MPDZ_12, O75970
T1 sequence (O75970 1857-1958, limits assumed, looked up): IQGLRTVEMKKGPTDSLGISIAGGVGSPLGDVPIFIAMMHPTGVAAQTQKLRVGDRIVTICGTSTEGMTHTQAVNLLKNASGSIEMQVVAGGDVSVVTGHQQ

T2: RHPN1, Q8TCX5
T2 sequence (Q8TCX5 508-602, limits assumed, looked up): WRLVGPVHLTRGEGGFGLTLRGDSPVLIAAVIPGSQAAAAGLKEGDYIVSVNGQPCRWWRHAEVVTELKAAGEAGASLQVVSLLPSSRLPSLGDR

T3: LIN7C, Q9NUP9
T3 sequence (Q9NUP9 88-185, limits assumed, looked up): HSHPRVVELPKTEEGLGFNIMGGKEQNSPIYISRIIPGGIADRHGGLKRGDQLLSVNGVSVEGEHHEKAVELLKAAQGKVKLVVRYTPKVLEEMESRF

T4: SHANK1, Q9Y566
T4 sequence (Q9Y566 658-767, limits assumed, looked up): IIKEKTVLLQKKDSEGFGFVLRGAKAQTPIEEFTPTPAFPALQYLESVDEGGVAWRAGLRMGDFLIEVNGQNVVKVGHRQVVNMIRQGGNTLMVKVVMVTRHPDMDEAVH

T5: SIPA1L2, Q9P2F8
T5 sequence (Q9P2F8 945-1036, limits assumed, looked up): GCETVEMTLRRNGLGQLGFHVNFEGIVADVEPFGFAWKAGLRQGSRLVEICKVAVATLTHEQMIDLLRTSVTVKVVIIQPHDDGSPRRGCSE

T6: GRIP1_4, Q9Y3R0
T6 sequence (Q9Y3R0 467-571, limits assumed, looked up): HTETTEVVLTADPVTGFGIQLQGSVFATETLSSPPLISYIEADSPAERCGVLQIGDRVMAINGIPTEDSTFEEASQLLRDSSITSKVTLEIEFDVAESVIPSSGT

T7: DLG3_3, Q92796
T7 sequence (Q92796 374-475, limits assumed, looked up): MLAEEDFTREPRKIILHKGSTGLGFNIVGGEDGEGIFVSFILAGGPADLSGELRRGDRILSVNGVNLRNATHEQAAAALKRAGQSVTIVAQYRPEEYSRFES

T8: PARD3B_1, Q8TEW8
T8 sequence (Q8TEW8 196-299, limits assumed, looked up): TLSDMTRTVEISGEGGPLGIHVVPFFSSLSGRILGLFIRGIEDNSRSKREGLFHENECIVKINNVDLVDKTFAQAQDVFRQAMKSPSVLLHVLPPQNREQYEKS


What was measured:
Experiment in all cases: holdup assay
Set-up in all cases: key: below the threshold = too weak to quantify, mostly under pKd 3.1 to 4
Details in all cases: plain residues with an end cap or a label only (N-terminal biotin on a linker: ado-ado)
MPDZ_12, O75970 = target: T1, MPDZ_12, O75970
RHPN1, Q8TCX5 = target: T2, RHPN1, Q8TCX5
FRMPD3, Q5JV73 = target: FRMPD3, Q5JV73
Chain of FRMPD3, Q5JV73 (Q5JV73 12-100): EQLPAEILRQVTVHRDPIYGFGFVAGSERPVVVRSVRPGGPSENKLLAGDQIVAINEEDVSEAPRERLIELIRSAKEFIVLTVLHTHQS

GRIP2_4, Q9C0E4 = target: GRIP2_4, Q9C0E4
Chain of GRIP2_4, Q9C0E4 (Q9C0E4 446-548): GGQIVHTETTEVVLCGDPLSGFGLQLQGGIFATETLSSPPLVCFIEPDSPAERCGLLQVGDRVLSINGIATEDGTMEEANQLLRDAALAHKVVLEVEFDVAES

HTRA2, O43464 = target: HTRA2, O43464
Chain of HTRA2, O43464 (O43464 355-458): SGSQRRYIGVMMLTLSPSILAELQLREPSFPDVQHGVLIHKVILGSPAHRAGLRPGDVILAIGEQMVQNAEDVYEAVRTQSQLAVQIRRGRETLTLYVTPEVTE

NHERF4_4, Q86UT5 = target: NHERF4_4, Q86UT5
Chain of NHERF4_4, Q86UT5 (Q86UT5 464-550): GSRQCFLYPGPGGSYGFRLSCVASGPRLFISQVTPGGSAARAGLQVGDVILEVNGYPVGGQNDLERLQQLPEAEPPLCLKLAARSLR

DLG1_2, Q12959 = target: DLG1_2, Q12959
Chain of DLG1_2, Q12959 (Q12959 314-412): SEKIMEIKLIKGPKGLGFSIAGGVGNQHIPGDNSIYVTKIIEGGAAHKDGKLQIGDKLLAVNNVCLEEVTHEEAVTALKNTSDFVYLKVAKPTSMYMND

SCRIB_3, Q14160 = target: SCRIB_3, Q14160
Chain of SCRIB_3, Q14160 (Q14160 999-1103): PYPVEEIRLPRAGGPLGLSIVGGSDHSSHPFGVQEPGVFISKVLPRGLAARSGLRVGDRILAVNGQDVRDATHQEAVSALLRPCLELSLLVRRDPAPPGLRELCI

LIN7C, Q9NUP9 = target: T3, LIN7C, Q9NUP9
PTPN3, P26045 = target: PTPN3, P26045
Chain of PTPN3, P26045 (P26045 505-587): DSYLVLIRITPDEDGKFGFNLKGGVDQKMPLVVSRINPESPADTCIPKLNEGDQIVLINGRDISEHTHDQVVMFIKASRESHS

SHANK1, Q9Y566 = target: T4, SHANK1, Q9Y566
SIPA1L2, Q9P2F8 = target: T5, SIPA1L2, Q9P2F8
GRID2IP_2, A4D2P6 = target: GRID2IP_2, A4D2P6
Chain of GRID2IP_2, A4D2P6 (A4D2P6 272-370): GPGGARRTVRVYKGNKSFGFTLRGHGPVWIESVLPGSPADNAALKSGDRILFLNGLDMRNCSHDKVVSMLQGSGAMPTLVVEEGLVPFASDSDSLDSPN

FRMPD2_1, Q68DX3 = target: FRMPD2_1, Q68DX3
Chain of FRMPD2_1, Q68DX3 (Q68DX3 770-861): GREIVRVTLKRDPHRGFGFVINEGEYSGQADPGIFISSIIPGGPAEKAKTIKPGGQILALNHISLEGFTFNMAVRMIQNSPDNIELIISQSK

MAGI2_2, Q86UL8 = target: MAGI2_2, Q86UL8
Chain of MAGI2_2, Q86UL8 (Q86UL8 410-522): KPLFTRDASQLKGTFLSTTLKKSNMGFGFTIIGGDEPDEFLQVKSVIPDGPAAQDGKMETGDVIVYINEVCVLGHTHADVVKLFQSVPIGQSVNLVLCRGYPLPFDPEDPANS

ARHGEF12, Q9NZN5-2 = target: ARHGEF12, Q9NZN5-2
Chain of ARHGEF12, Q9NZN5-2 (Q9NZN5 other isoform, or with tags, fused parts or gaps): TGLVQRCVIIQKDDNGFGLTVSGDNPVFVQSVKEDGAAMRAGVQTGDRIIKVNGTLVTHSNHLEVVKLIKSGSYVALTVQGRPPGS

Inadl_2, Q8NI35 = target: Inadl_2, Q8NI35
Chain of Inadl_2, Q8NI35 (Q8NI35 238-335): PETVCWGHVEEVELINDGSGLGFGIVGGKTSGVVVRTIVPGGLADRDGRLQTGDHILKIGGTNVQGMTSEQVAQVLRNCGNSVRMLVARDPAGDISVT

LDB3, O75112 = target: LDB3, O75112
Chain of LDB3, O75112 (O75112 1-94): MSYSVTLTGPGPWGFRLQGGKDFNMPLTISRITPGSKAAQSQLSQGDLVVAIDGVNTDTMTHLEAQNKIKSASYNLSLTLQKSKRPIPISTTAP

NHERF2_2, Q15599 = target: NHERF2_2, Q15599
Chain of NHERF2_2, Q15599 (Q15599 142-238): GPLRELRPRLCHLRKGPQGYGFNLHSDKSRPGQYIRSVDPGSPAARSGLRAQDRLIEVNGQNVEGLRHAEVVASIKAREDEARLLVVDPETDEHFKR

Inadl_1, Q8NI35 = target: Inadl_1, Q8NI35
Chain of Inadl_1, Q8NI35 (Q8NI35 113-229): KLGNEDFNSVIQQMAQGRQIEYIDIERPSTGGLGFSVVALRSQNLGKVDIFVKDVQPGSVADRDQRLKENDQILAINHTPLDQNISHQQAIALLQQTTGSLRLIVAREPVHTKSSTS

LNX1_3, Q8TBB1 = target: LNX1_3, Q8TBB1
Chain of LNX1_3, Q8TBB1 (Q8TBB1 500-596): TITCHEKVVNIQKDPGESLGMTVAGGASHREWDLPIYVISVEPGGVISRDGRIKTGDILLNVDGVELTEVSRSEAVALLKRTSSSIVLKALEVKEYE

MAGI2_6, Q86UL8 = target: MAGI2_6, Q86UL8
Chain of MAGI2_6, Q86UL8 (Q86UL8 1141-1229): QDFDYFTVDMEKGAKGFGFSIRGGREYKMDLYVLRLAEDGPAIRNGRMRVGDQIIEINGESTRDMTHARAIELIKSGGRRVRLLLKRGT

GRIP1_4, Q9Y3R0 = target: T6, GRIP1_4, Q9Y3R0
DLG3_3, Q92796 = target: T7, DLG3_3, Q92796
GORASP1, Q9BQQ3 = target: GORASP1, Q9BQQ3
Chain of GORASP1, Q9BQQ3 (Q9BQQ3 1-208): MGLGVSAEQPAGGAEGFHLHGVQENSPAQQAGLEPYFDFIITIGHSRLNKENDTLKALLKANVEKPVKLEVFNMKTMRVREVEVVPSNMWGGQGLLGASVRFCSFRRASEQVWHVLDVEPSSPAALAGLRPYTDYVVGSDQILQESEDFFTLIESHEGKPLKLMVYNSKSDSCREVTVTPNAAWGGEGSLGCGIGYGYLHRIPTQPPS

PARD3B_1, Q8TEW8 = target: T8, PARD3B_1, Q8TEW8
NHERF4_1, Q86UT5-2 = target: NHERF4_1, Q86UT5-2
Chain of NHERF4_1, Q86UT5-2 (Q86UT5 other isoform, or with tags, fused parts or gaps): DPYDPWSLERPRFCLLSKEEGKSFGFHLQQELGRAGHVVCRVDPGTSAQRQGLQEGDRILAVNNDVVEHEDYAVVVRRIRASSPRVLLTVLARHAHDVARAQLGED

SNX27, Q96L92 = target: SNX27, Q96L92
Inadl_6, Q8NI35 = target: Inadl_6, Q8NI35
Chain of Inadl_6, Q8NI35 (Q8NI35 1058-1167): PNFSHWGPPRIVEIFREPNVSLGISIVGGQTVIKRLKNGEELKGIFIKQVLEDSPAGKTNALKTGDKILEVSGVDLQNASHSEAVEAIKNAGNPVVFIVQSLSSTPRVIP

| pKd (MPDZ_12, O75970) | pKd (RHPN1, Q8TCX5) | pKd (FRMPD3, Q5JV73) | pKd (GRIP2_4, Q9C0E4) | pKd (HTRA2, O43464) | pKd (NHERF4_4, Q86UT5) | pKd (DLG1_2, Q12959) | pKd (SCRIB_3, Q14160) | pKd (LIN7C, Q9NUP9) | pKd (PTPN3, P26045) | pKd (SHANK1, Q9Y566) | pKd (SIPA1L2, Q9P2F8) | pKd (GRID2IP_2, A4D2P6) | pKd (FRMPD2_1, Q68DX3) | pKd (MAGI2_2, Q86UL8) | pKd (ARHGEF12, Q9NZN5-2) | pKd (Inadl_2, Q8NI35) | pKd (LDB3, O75112) | pKd (NHERF2_2, Q15599) | pKd (Inadl_1, Q8NI35) | Binder | also measured |
| --- | --- | --- | --- | --- | --- | --- | --- | --- | --- | --- | --- | --- | --- | --- | --- | --- | --- | --- | --- | --- | --- |
| below the threshold | 4.24 | below the threshold | below the threshold | below the threshold | below the threshold | 4.89 | 4.14 | below the threshold | 4.41 | below the threshold | below the threshold | below the threshold | below the threshold | 4.74 | 3.56 | below the threshold | below the threshold | below the threshold | below the threshold | TACCHSETVV [TGFA, P01135] | pKd (LNX1_3, Q8TBB1): below the threshold; pKd (MAGI2_6, Q86UL8): 3.81; pKd (GRIP1_4, Q9Y3R0): below the threshold; pKd (DLG3_3, Q92796): 3.85; pKd (GORASP1, Q9BQQ3): 3.67; pKd (PARD3B_1, Q8TEW8): below the threshold; pKd (NHERF4_1, Q86UT5-2): below the threshold; pKd (SNX27, Q96L92): 5.6; pKd (Inadl_6, Q8NI35): 3.55 |
| below the threshold | below the threshold | below the threshold | below the threshold | 4.18 | below the threshold | below the threshold | below the threshold | below the threshold | below the threshold | below the threshold | below the threshold | below the threshold | below the threshold | below the threshold | below the threshold | below the threshold | below the threshold | below the threshold | 3.82 | QSPANIYYKV [EFNB1, P52799] | pKd (LNX1_3, Q8TBB1): 4.38; pKd (MAGI2_6, Q86UL8): below the threshold; pKd (GRIP1_4, Q9Y3R0): below the threshold; pKd (DLG3_3, Q92796): below the threshold; pKd (GORASP1, Q9BQQ3): 4.85; pKd (PARD3B_1, Q8TEW8): 3.66; pKd (NHERF4_1, Q86UT5-2): below the threshold; pKd (SNX27, Q96L92): below the threshold; pKd (Inadl_6, Q8NI35): below the threshold |
| below the threshold | below the threshold | below the threshold | below the threshold | below the threshold | 3.88 | 3.76 | 3.49 | below the threshold | 4.11 | below the threshold | below the threshold | 3.87 | below the threshold | 3.82 | 3.54 | below the threshold | below the threshold | below the threshold | below the threshold | TLPRKRMSSI [GPRC6A, Q5T6X5] | pKd (LNX1_3, Q8TBB1): below the threshold; pKd (MAGI2_6, Q86UL8): below the threshold; pKd (GRIP1_4, Q9Y3R0): below the threshold; pKd (DLG3_3, Q92796): below the threshold; pKd (GORASP1, Q9BQQ3): below the threshold; pKd (PARD3B_1, Q8TEW8): below the threshold; pKd (NHERF4_1, Q86UT5-2): below the threshold; pKd (SNX27, Q96L92): below the threshold; pKd (Inadl_6, Q8NI35): below the threshold |
| below the threshold | below the threshold | below the threshold | below the threshold | 3.74 | 3.94 | 3.77 | below the threshold | below the threshold | below the threshold | below the threshold | below the threshold | 3.63 | below the threshold | below the threshold | below the threshold | below the threshold | below the threshold | below the threshold | below the threshold | HSGYRLNDYV [CLDN14, O95500] | pKd (LNX1_3, Q8TBB1): below the threshold; pKd (MAGI2_6, Q86UL8): 4.12; pKd (GRIP1_4, Q9Y3R0): below the threshold; pKd (DLG3_3, Q92796): below the threshold; pKd (GORASP1, Q9BQQ3): 3.75; pKd (PARD3B_1, Q8TEW8): below the threshold; pKd (NHERF4_1, Q86UT5-2): 3.57; pKd (SNX27, Q96L92): 3.72; pKd (Inadl_6, Q8NI35): below the threshold |
| below the threshold | below the threshold | below the threshold | below the threshold | below the threshold | 3.82 | below the threshold | below the threshold | 3.97 | 3.67 | below the threshold | below the threshold | below the threshold | below the threshold | 4.02 | below the threshold | below the threshold | below the threshold | below the threshold | below the threshold | TSSMRGMDAV [RSRC2, Q7L4I2] | pKd (LNX1_3, Q8TBB1): below the threshold; pKd (MAGI2_6, Q86UL8): below the threshold; pKd (GRIP1_4, Q9Y3R0): below the threshold; pKd (DLG3_3, Q92796): below the threshold; pKd (GORASP1, Q9BQQ3): below the threshold; pKd (PARD3B_1, Q8TEW8): below the threshold; pKd (NHERF4_1, Q86UT5-2): 3.91; pKd (SNX27, Q96L92): below the threshold; pKd (Inadl_6, Q8NI35): below the threshold |
